Results on 17 molecules are retold here after US20130236467A1 (published 2013).

B1: DT02-K-044-077 in Pascolizumab-(GSTVAAPS)3-T mAb-dAb format (bispecific antibody, part only; not given: Pascolizumab chains and linker, not shown: another chain or arm of the molecule; small tags and cut ends)
dAb: DIQMTQSPSSLSASVGDRVTITCRASQWIGPELAWYQQKPGKAPKLLIYHGSILQSGVPSRFSGSGSGTDFTLTISSLQPEDFATYYCQQYMYYPHTFGQGTKVEIKR
B2: DT02-K-044-095 in Pascolizumab-(GSTVAAPS)3-T mAb-dAb format (bispecific antibody, part only; not given: pascolizumab chains and linker, not shown: another chain or arm of the molecule; large carriers; small tags and cut ends)
dAb: DIQMTQSPSSLSASVGDRVTITCRASQWIGPELYWYQQKPGKAPKLLIYHGSILQSGVPSRFSGSGSGTDFTLTISSLQPEDFATYYCQQYMYYPHTFGQGTKVEIKR
B3: DT02-K-044-088 in Pascolizumab-(GSTVAAPS)3-T mAb-dAb format (bispecific antibody, part only; not given: pascolizumab chains and linker, not shown: another chain or arm of the molecule; large carriers; small tags and cut ends)
dAb: DIQMTQSPSSLSASVGDRVTITCRASQWIGPELNWYQQKPGKAPKLLIYHGSILQSGVPSRFSGSGSGTDFTLTISSLQPEDFATYYCQQYMYYPHTFGQGTKVEIKR
B4: DT02-K-044-087 in Pascolizumab-(GSTVAAPS)3-T mAb-dAb format (bispecific antibody, part only; not given: pascolizumab chains and linker, not shown: another chain or arm of the molecule; large carriers; small tags and cut ends)
dAb: DIQMTQSPSSLSASVGDRVTITCRASQWIGPELMWYQQKPGKAPKLLIYHGSILQSGVPSRFSGSGSGTDFTLTISSLQPEDFATYYCQQYMYYPHTFGQGTKVEIKR
B5: DT02-K-044-083 in Pascolizumab-(GSTVAAPS)3-T mAb-dAb format (bispecific antibody, part only; not given: pascolizumab heavy and light chains, not shown: another chain or arm of the molecule; small tags and cut ends)
dAb: DIQMTQSPSSLSASVGDRVTITCRASQWIGPELHWYQQKPGKAPKLLIYHGSILQSGVPSRFSGSGSGTDFTLTISSLQPEDFATYYCQQYMYYPHTFGQGTKVEIKR
B6: DT02-K-044-090 in Pascolizumab-(GSTVAAPS)3-T mAb-dAb format (bispecific antibody, part only; not given: pascolizumab chains and linker, not shown: another chain or arm of the molecule; large carriers; small tags and cut ends)
dAb: DIQMTQSPSSLSASVGDRVTITCRASQWIGPELQWYQQKPGKAPKLLIYHGSILQSGVPSRFSGSGSGTDFTLTISSLQPEDFATYYCQQYMYYPHTFGQGTKVEIKR
B7: DT02-K-044-235 in Pascolizumab-(GSTVAAPS)3-T mAb-dAb format (bispecific antibody, part only; not given: pascolizumab chains and linker, not shown: another chain or arm of the molecule; small tags and cut ends)
dAb: DIQMTQSPSSLSASVGDRVTITCRASQWIGPELSWYQQKPGKAPKLLIYHGSILQSGVPSRFSGSGSGTDFTLTISSLQPEDFATYYCQQYMYYPITFGQGTKVEIKR
B8: DT02-K-044-093 in Pascolizumab-(GSTVAAPS)3-T mAb-dAb format (bispecific antibody, part only; not given: Pascolizumab chains and linker, not shown: another chain or arm of the molecule; large carriers; small tags and cut ends)
dAb: DIQMTQSPSSLSASVGDRVTITCRASQWIGPELVWYQQKPGKAPKLLIYHGSILQSGVPSRFSGSGSGTDFTLTISSLQPEDFATYYCQQYMYYPHTFGQGTKVEIKR
B9: DT02-K-044-092 in Pascolizumab-(GSTVAAPS)3-T mAb-dAb format (bispecific antibody, part only; not given: pascolizumab chains and linker, not shown: another chain or arm of the molecule; large carriers; small tags and cut ends)
dAb: DIQMTQSPSSLSASVGDRVTITCRASQWIGPELTWYQQKPGKAPKLLIYHGSILQSGVPSRFSGSGSGTDFTLTISSLQPEDFATYYCQQYMYYPHTFGQGTKVEIKR
B10: DT02-K-044-239 in Pascolizumab-(GSTVAAPS)3-T mAb-dAb format (bispecific antibody, part only; not given: Pascolizumab chains and linker, not shown: another chain or arm of the molecule; large carriers; small tags and cut ends)
dAb: DIQMTQSPSSLSASVGDRVTITCRASQWIGPELSWYQQKPGKAPKLLIYHGSILQSGVPSRFSGSGSGTDFTLTISSLQPEDFATYYCQQYMYYPNTFGQGTKVEIKR
B11: DT02-K-044-238 in Pascolizumab-(GSTVAAPS)3-T mAb-dAb format (bispecific antibody, part only; not given: Pascolizumab chains and linker, not shown: another chain or arm of the molecule; small tags and cut ends)
dAb: DIQMTQSPSSLSASVGDRVTITCRASQWIGPELSWYQQKPGKAPKLLIYHGSILQSGVPSRFSGSGSGTDFTLTISSLQPEDFATYYCQQYMYYPMTFGQGTKVEIKR
B12: DT02-K-044-232 in Pascolizumab-(GSTVAAPS)3-T mAb-dAb format (bispecific antibody, part only; not given: pascolizumab chains and linker, not shown: another chain or arm of the molecule; small tags and cut ends)
dAb: DIQMTQSPSSLSASVGDRVTITCRASQWIGPELSWYQQKPGKAPKLLIYHGSILQSGVPSRFSGSGSGTDFTLTISSLQPEDFATYYCQQYMYYPETFGQGTKVEIKR
B13: DT02-K-044-229 in Pascolizumab-(GSTVAAPS)3-T mAb-dAb format (bispecific antibody, part only; not given: pascolizumab chains and linker, not shown: another chain or arm of the molecule; small tags and cut ends)
dAb: DIQMTQSPSSLSASVGDRVTITCRASQWIGPELSWYQQKPGKAPKLLIYHGSILQSGVPSRFSGSGSGTDFTLTISSLQPEDFATYYCQQYMYYPATFGQGTKVEIKR
B14: DT02-K-044-247 in Pascolizumab-(GSTVAAPS)3-T mAb-dAb format (bispecific antibody, part only; not given: pascolizumab chains and linker, not shown: another chain or arm of the molecule; large carriers; small tags and cut ends)
dAb: DIQMTQSPSSLSASVGDRVTITCRASQWIGPELSWYQQKPGKAPKLLIYHGSILQSGVPSRFSGSGSGTDFTLTISSLQPEDFATYYCQQYMYYPYTFGQGTKVEIKR
B15: DT02-K-044-240 in Pascolizumab-(GSTVAAPS)3-T mAb-dAb format (bispecific antibody, part only; not given: pascolizumab chains and linker, not shown: another chain or arm of the molecule; large carriers; small tags and cut ends)
dAb: DIQMTQSPSSLSASVGDRVTITCRASQWIGPELSWYQQKPGKAPKLLIYHGSILQSGVPSRFSGSGSGTDFTLTISSLQPEDFATYYCQQYMYYPPTFGQGTKVEIKR
B16: DT02-K-044-230 in Pascolizumab-(GSTVAAPS)3-T mAb-dAb format (bispecific antibody, part only; not given: pascolizumab chains and linker, not shown: another chain or arm of the molecule; small tags and cut ends)
dAb: DIQMTQSPSSLSASVGDRVTITCRASQWIGPELSWYQQKPGKAPKLLIYHGSILQSGVPSRFSGSGSGTDFTLTISSLQPEDFATYYCQQYMYYPCTFGQGTKVEIKR
B17: BPC 1856, anti-HGF S260116C12VL1 Chimera (antibody, V domains shown)
VH: QIQLRQSGAGLMKPGASVKLSCKATGYTFTGYWIEWVKQRPGHDLEWIGEILPGSGTTNYNEKFKGKATFTADTSSNTAYMQLSSLTTEDSAIYYCARGGYYYGSSYDSWGQGTLVTVSS
VL: DIVLTQSPASLAVSLGQRATISCRASESVSIHGTHLMHWYQQKPGQPPKLLIYAASNLESGVPARFSGSGSETDFTLNIHPVEEEDAATYFCQQSIEDPYTFGGGTKLEIKR
notes: also called chimeric mAb BPC1856

Usually Kd stands for the constant that tells how readily two partners part at equilibrium. Broadly, the koff is the first-order rate constant of dissociation. Read a high koff as fast dissociation. A word on the kon: it is the rate constant with which the complex forms.

T1 sequence (P14210 32-728 limits assumed, form in doubt): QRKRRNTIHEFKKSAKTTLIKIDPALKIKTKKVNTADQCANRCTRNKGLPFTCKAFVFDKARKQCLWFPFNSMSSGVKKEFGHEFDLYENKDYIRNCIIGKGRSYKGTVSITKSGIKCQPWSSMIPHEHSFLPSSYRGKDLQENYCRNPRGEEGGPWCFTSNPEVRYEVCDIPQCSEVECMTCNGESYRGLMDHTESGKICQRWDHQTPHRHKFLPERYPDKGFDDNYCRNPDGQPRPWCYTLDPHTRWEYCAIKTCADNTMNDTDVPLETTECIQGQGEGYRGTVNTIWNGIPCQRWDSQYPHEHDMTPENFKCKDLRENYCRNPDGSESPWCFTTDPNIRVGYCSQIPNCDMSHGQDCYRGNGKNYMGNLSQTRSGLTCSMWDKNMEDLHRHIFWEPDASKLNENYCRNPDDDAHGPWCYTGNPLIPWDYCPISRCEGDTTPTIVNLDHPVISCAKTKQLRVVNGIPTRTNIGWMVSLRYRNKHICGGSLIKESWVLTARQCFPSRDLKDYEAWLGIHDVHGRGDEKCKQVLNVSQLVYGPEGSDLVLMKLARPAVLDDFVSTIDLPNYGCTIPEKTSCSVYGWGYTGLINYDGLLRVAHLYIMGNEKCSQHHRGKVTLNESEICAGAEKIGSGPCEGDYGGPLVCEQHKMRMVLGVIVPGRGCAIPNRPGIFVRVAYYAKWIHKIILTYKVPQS

One test addresses recombinant human VEGF (hVEGF-165) (human) (UniProt P15692). In words: Proteon SPR estimate, mAb-dAb in transfection supernatant.
On to B1, for which the equilibrium dissociation constant (Kd) is 0.04 nM.

Turning to B2, the dissociation constant Kd is 0.006 nM. On to B3, for which the dissociation constant (Kd) is 0.052 nM. B4: the dissociation constant Kd was 0.005 nM. Turning to B5, the Kd is 0.049 nM. Consider B6, for which the Kd was 0.02 nM. On to B7, for which the equilibrium dissociation constant (Kd) was 0.004 nM. B8: the Kd was 0.034 nM. As to B9, the equilibrium dissociation constant (Kd) is 0.003 nM.

As for B10, the Kd is 0.013 nM.

Regarding B11, the Kd was 0.044 nM. Consider B12, for which the Kd was 0.004 nM. With B13, the Kd was 0.002 nM. Regarding B14, the dissociation constant Kd is 0.018 nM. On to B15, for which the Kd is 0.043 nM.

On to B16, for which the Kd is 0.023 nM.

The target of another test is human HGFδ5 (human) (UniProt P14210). The experiment in a line: Biacore SPR, antibody captured on anti-human IgG, HGF as analyte, 37 C, 1:1 model. For orientation: In SPR one partner is held on a chip, and binding of the other changes the refractive index at the surface.
Chain of human HGFδ5 (human) (P14210 other isoform, or with tags, fused parts or gaps mutant): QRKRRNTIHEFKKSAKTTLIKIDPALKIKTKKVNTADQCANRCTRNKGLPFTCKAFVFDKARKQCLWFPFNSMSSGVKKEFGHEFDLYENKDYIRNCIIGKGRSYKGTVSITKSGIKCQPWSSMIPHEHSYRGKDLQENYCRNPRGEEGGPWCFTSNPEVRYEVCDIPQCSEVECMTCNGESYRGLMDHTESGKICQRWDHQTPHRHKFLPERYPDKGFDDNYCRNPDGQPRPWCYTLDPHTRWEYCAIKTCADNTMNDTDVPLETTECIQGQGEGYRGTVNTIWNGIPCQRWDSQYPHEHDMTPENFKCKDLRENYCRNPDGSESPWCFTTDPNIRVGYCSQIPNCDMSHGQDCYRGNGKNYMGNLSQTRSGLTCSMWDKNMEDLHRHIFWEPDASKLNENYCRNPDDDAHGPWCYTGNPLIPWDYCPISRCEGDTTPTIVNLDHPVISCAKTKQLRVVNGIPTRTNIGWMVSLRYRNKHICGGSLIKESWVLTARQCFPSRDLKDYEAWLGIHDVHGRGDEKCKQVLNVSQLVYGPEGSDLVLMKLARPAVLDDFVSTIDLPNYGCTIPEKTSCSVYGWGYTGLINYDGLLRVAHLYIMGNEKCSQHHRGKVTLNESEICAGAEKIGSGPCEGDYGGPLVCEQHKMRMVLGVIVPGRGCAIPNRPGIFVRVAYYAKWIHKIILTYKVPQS
For B17, the dissociation constant (Kd) came to 0.042 nM, the koff came out at 1.78e-05 s⁻¹ and the association rate constant (kon) is 423000 M⁻¹ s⁻¹.

The next test has as its target T1, Human HGFv1 (human, UniProt P14210 32-728).
T1 construct: Biotinylated in the bridging ELISA; also called HGF (fl); HGF full length
The description is as above.
In the case of B17, the Kd turned out to be 0.034 nM, the koff was determined as 1.49e-05 s⁻¹ and the on-rate constant (kon) worked out at 434000 M⁻¹ s⁻¹.
